According to patent US20230212549A1, “COMPOUNDS COMPRISING A […] LIGAND AND USE THEREOF” (priority 2021, published 2023):
Numbered stars: 1 amine (or outer) side, 2 acyl side, 3 side chain; on linkers, the order of the positions; unused ones are H or OH. Bridge positions count the residues as written; N and C are the ends. Square brackets hold non-standard residues; d marks the D form. Primed or numbered codes have the meaning given here. Side chains are listed from the residue outwards. * marks the point of attachment. tMeBn(DOTA-PP) = 1,3,5-trimethylbenzylidene, two thioethers to Cys, third CH2 bound to one N of piperazine whose other N bears DOTA, O=C(O)CN1CCN(CC(=O)O)CCN(CC(=O)N2CCN(Cc3cc(C[*:1])cc(C[*:2])c3)CC2)CCN(CC(=O)O)CC1; Ttds″ = 1,13-diamino-4,7,10-trioxatridecan-succinamic acid spacer, O=C(CCC(=O)[*:2])NCCCOCCOCCOCCCN[*:1]; Ttds(6) = 1,13-Diamino-4,7,10-trioxatridecan-succinamic acid, O=C(CCC(=O)[*:2])NCCCOCCOCCOCCCN[*:1]; 3MeBn″ = 3-methylbenzylidene (meta-xylylene bridge from alpha,alpha'-dibromo-m-xylene); 3MeBn = 3-Methylbenzylidene (m-xylylene thioether bridge from α,α′-dibromo-m-xylene); N4Ac = 6-Carboxy-1,4,8,11-tetraazaundecane, an N4-chelator, NCCNCC(CNCCN)C(=O)*; APAc = 2-(4-(Amino)piperidin-1-yl)acetic acid, O=C(CN1CCC(N[*:1])CC1)[*:2]; 3MeBn(3) = 3-methylbenzylidene (m-xylylene), from α,α′-dibromo-m-xylene; Biotin = O=C1N[C@H]2[C@H](CS[C@H]2CCCCC(=O)*)N1; Bip = N[C@@H](Cc1ccc(-c2ccccc2)cc1)C(=O)O; γGlu = O=C(O)[C@H](CCC(=O)[*:2])N[*:1]; Met(O2) = CS(=O)(=O)CC[C@H](N)C(=O)O; mXylylene = c1cc(C[*:1])cc(C[*:2])c1; NMeE = CN[C@@H](CCC(=O)O)C(=O)O; DOTA′ = not defined here; Nle = CCCC[C@H](N)C(=O)O; Nphe = O=C(O)CNCc1ccccc1; Apr = not defined here; Hexanoyl = CCCCCC(=O)*; Nleu = CC(C)CNCC(=O)O; Nlys = NCCCCNCC(=O)O; Mpa = O=C(O)CCS

B1: Hex-[Cys(tMeBn(DOTA-PP))-Pro-Thr-Pro-Phe-Gln-Cys]-Asp-NH2 (peptide)
peptide: Hexanoyl-CPTPFQCD-NH2
modifications: linker 1-7 via tMeBn(DOTA-PP)
SMILES: CCCCCC(=O)N[C@H]1CSCc2cc(cc(CN3CCN(C(=O)CN4CCN(CC(=O)O)CCN(CC(=O)O)CCN(CC(=O)O)CC4)CC3)c2)CSC[C@@H](C(=O)N[C@@H](CC(=O)O)C(N)=O)NC(=O)[C@H](CCC(N)=O)NC(=O)[C@H](Cc2ccccc2)NC(=O)[C@@H]2CCCN2C(=O)[C@H]([C@@H](C)O)NC(=O)[C@@H]2CCCN2C1=O
B2: Hex-[Cys(tMeBn(DOTA-PP))-Phe-Gln-Thr-Pro-Pro-Cys]-Asp-NH2 (peptide)
peptide: Hexanoyl-CFQTPPCD-NH2
modifications: linker 1-7 via tMeBn(DOTA-PP)
SMILES: CCCCCC(=O)N[C@H]1CSCc2cc(cc(CN3CCN(C(=O)CN4CCN(CC(=O)O)CCN(CC(=O)O)CCN(CC(=O)O)CC4)CC3)c2)CSC[C@@H](C(=O)N[C@@H](CC(=O)O)C(N)=O)NC(=O)[C@@H]2CCCN2C(=O)[C@@H]2CCCN2C(=O)[C@H]([C@@H](C)O)NC(=O)[C@H](CCC(N)=O)NC(=O)[C@H](Cc2ccccc2)NC1=O
B3: Hex-[Cys(tMeBn(DOTA-PP))-Thr-Gln-Pro-Phe-Pro-Cys]-Asp-NH2 (peptide)
peptide: Hexanoyl-CTQPFPCD-NH2
modifications: linker 1-7 via tMeBn(DOTA-PP)
SMILES: CCCCCC(=O)N[C@H]1CSCc2cc(cc(CN3CCN(C(=O)CN4CCN(CC(=O)O)CCN(CC(=O)O)CCN(CC(=O)O)CC4)CC3)c2)CSC[C@@H](C(=O)N[C@@H](CC(=O)O)C(N)=O)NC(=O)[C@@H]2CCCN2C(=O)[C@H](Cc2ccccc2)NC(=O)[C@@H]2CCCN2C(=O)[C@H](CCC(N)=O)NC(=O)[C@H]([C@@H](C)O)NC1=O
B4: Hex-[Cys(3MeBn)-Nphe-Pro-Thr-Gln-Phe-Cys]-NH2 (peptide)
peptide: Hexanoyl-C[Nphe]PTQFC-NH2
modifications: linker 1-7 via mXylylene
SMILES: CCCCCC(=O)N[C@H]1CSCc2cccc(c2)CSC[C@@H](C(N)=O)NC(=O)[C@H](Cc2ccccc2)NC(=O)[C@H](CCC(N)=O)NC(=O)[C@H]([C@@H](C)O)NC(=O)[C@@H]2CCCN2C(=O)CN(Cc2ccccc2)C1=O
B5: Hex-[Cys(3MeBn)-Nlys-Pro-Thr-Gln-Phe-Cys]-NH2 (peptide)
peptide: Hexanoyl-C[Nlys]PTQFC-NH2
modifications: linker 1-7 via mXylylene
SMILES: CCCCCC(=O)N[C@H]1CSCc2cccc(c2)CSC[C@@H](C(N)=O)NC(=O)[C@H](Cc2ccccc2)NC(=O)[C@H](CCC(N)=O)NC(=O)[C@H]([C@@H](C)O)NC(=O)[C@@H]2CCCN2C(=O)CN(CCCCN)C1=O
B6: N4Ac-Ttds-Glu(AGLU′)-Nle-[Cys-(3MeBn)-Pro-Pro-Thr-Glu-Phe-Cys]-OH (peptide)
peptide: N4Ac-[Ttds(6)]E[Nle]CPPTEFC-OH
modifications: linker 4-10 via 3MeBn; not fully specified (residue 2); printed as N4Ac-Ttds-Glu(AGLU′)-Nle-[Cys-(3MeBn)-Pro-Pro-Thr-Glu-Phe-Cys]-OH
B7: N4Ac-gGlu-Nle-[Cys-(3MeBn)-Pro-Pro-Thr-Glu-Phe-Cys]-OH (peptide)
peptide: N4Ac-[γGlu][Nle]CPPTEFC-OH
modifications: linker 3-9 via mXylylene
SMILES: CCCC[C@H](NC(=O)CC[C@H](NC(=O)C(CNCCN)CNCCN)C(=O)O)C(=O)N[C@H]1CSCc2cccc(c2)CSC[C@@H](C(=O)O)NC(=O)[C@H](Cc2ccccc2)NC(=O)[C@H](CCC(=O)O)NC(=O)[C@H]([C@@H](C)O)NC(=O)[C@@H]2CCCN2C(=O)[C@@H]2CCCN2C1=O
B8: Hex-[Cys(3MeBn)-Nleu-Pro-Thr-Gln-Phe-Cys]-NH2 (peptide)
peptide: Hexanoyl-C[Nleu]PTQFC-NH2
modifications: linker 1-7 via mXylylene
SMILES: CCCCCC(=O)N[C@H]1CSCc2cccc(c2)CSC[C@@H](C(N)=O)NC(=O)[C@H](Cc2ccccc2)NC(=O)[C@H](CCC(N)=O)NC(=O)[C@H]([C@@H](C)O)NC(=O)[C@@H]2CCCN2C(=O)CN(CC(C)C)C1=O
B9: [3MeBn-Spa-Pro-Pro-Thr-Gln-Phe-Cys]-Asp-NH2 (peptide)
peptide: [Mpa]PPTQFCD-NH2
modifications: linker 1-7 via mXylylene
SMILES: C[C@@H](O)[C@@H]1NC(=O)[C@@H]2CCCN2C(=O)[C@@H]2CCCN2C(=O)CCSCc2cccc(c2)CSC[C@@H](C(=O)N[C@@H](CC(=O)O)C(N)=O)NC(=O)[C@H](Cc2ccccc2)NC(=O)[C@H](CCC(N)=O)NC1=O
B10: H-Met-[Cys(3MeBn)-Pro-Pro-Thr-Glu-Phe-Cys]-Asp-His-Phe-Arg-Asp-Ttds-Lys(Bio)-NH2 (peptide)
peptide: H-MCPPTEFCDHFRD[Ttds″]K(Biotin)-NH2
modifications: linker 2-8 via mXylylene
SMILES: CSCC[C@H](N)C(=O)N[C@H]1CSCc2cccc(c2)CSC[C@@H](C(=O)N[C@@H](CC(=O)O)C(=O)N[C@@H](Cc2c[nH]cn2)C(=O)N[C@@H](Cc2ccccc2)C(=O)N[C@@H](CCCNC(=N)N)C(=O)N[C@@H](CC(=O)O)C(=O)NCCCOCCOCCOCCCNC(=O)CCC(=O)N[C@@H](CCCCNC(=O)CCCC[C@@H]2SC[C@@H]3NC(=O)N[C@@H]32)C(N)=O)NC(=O)[C@H](Cc2ccccc2)NC(=O)[C@H](CCC(=O)O)NC(=O)[C@H]([C@@H](C)O)NC(=O)[C@@H]2CCCN2C(=O)[C@@H]2CCCN2C1=O
B11: Hex-[Cys(3MeBn)-Pro-Pro-Thr-Glu(NH-Apr-DOTA′)-Phe-Cys]-Asp-NH2 (peptide)
peptide: Hexanoyl-CPPTE([Apr-DOTA′])FCD-NH2
modifications: linker 1-7 via mXylylene; reading uncertain; also: printed as Hex-[Cys(3MeBn)-Pro-Pro-Thr-Glu(NH-Apr-DOTA′)-Phe-Cys]-Asp-NH2
B12: Hex-[Cys(3MeBn)-Pro-Pro-Thr-Glu-Nphe-Cys]-NH2 (peptide)
peptide: Hexanoyl-CPPTE[Nphe]C-NH2
modifications: linker 1-7 via mXylylene
SMILES: CCCCCC(=O)N[C@H]1CSCc2cccc(c2)CSC[C@@H](C(N)=O)NC(=O)CN(Cc2ccccc2)C(=O)[C@H](CCC(=O)O)NC(=O)[C@H]([C@@H](C)O)NC(=O)[C@@H]2CCCN2C(=O)[C@@H]2CCCN2C1=O
B13: Hex-[Cys(3MeBn)-Pro-Pro-Thr-Glu-Bip-Cys]-NH2 (peptide)
peptide: Hexanoyl-CPPTE[Bip]C-NH2
modifications: linker 1-7 via mXylylene
SMILES: CCCCCC(=O)N[C@H]1CSCc2cccc(c2)CSC[C@@H](C(N)=O)NC(=O)[C@H](Cc2ccc(-c3ccccc3)cc2)NC(=O)[C@H](CCC(=O)O)NC(=O)[C@H]([C@@H](C)O)NC(=O)[C@@H]2CCCN2C(=O)[C@@H]2CCCN2C1=O
B14: Hex-[Cys(3MeBn)-Pro-Pro-Ala-Glu-Phe-Cys]-NH2 (peptide)
peptide: Hexanoyl-CPPAEFC-NH2
modifications: linker 1-7 via mXylylene
SMILES: CCCCCC(=O)N[C@H]1CSCc2cccc(c2)CSC[C@@H](C(N)=O)NC(=O)[C@H](Cc2ccccc2)NC(=O)[C@H](CCC(=O)O)NC(=O)[C@H](C)NC(=O)[C@@H]2CCCN2C(=O)[C@@H]2CCCN2C1=O
B15: Hex-[Cys(3MeBn)-Pro-Pro-Thr-Moo-Phe-Cys]-NH2 (peptide)
peptide: Hexanoyl-CPPT[Met(O2)]FC-NH2
modifications: linker 1-7 via mXylylene
SMILES: CCCCCC(=O)N[C@H]1CSCc2cccc(c2)CSC[C@@H](C(N)=O)NC(=O)[C@H](Cc2ccccc2)NC(=O)[C@H](CCS(C)(=O)=O)NC(=O)[C@H]([C@@H](C)O)NC(=O)[C@@H]2CCCN2C(=O)[C@@H]2CCCN2C1=O
B16: Hex-[Cys(3MeBn)-Pro-Pro-Thr-Nme-Phe-Cys]-NH2 (peptide)
peptide: Hexanoyl-CPPT[NMeE]FC-NH2
modifications: linker 1-7 via mXylylene
SMILES: CCCCCC(=O)N[C@H]1CSCc2cccc(c2)CSC[C@@H](C(N)=O)NC(=O)[C@H](Cc2ccccc2)NC(=O)[C@H](CCC(=O)O)N(C)C(=O)[C@H]([C@@H](C)O)NC(=O)[C@@H]2CCCN2C(=O)[C@@H]2CCCN2C1=O
B17: Hex-[Cys(3MeBn)-Pro-Pro-Thr-Ala-Phe-Cys]-NH2 (peptide)
peptide: Hexanoyl-CPPTAFC-NH2
modifications: linker 1-7 via mXylylene
SMILES: CCCCCC(=O)N[C@H]1CSCc2cccc(c2)CSC[C@@H](C(N)=O)NC(=O)[C@H](Cc2ccccc2)NC(=O)[C@H](C)NC(=O)[C@H]([C@@H](C)O)NC(=O)[C@@H]2CCCN2C(=O)[C@@H]2CCCN2C1=O
B18: Hex-[Cys(3MeBn)-Ala-Pro-Thr-Glu-Phe-Cys]-NH2 (peptide)
peptide: Hexanoyl-CAPTEFC-NH2
modifications: linker 1-7 via mXylylene
SMILES: CCCCCC(=O)N[C@H]1CSCc2cccc(c2)CSC[C@@H](C(N)=O)NC(=O)[C@H](Cc2ccccc2)NC(=O)[C@H](CCC(=O)O)NC(=O)[C@H]([C@@H](C)O)NC(=O)[C@@H]2CCCN2C(=O)[C@H](C)NC1=O
B19: Hex-[Cys(3MeBn)-Pro-Pro-Thr-Glu-Ala-Cys]-NH2 (peptide)
peptide: Hexanoyl-CPPTEAC-NH2
modifications: linker 1-7 via mXylylene
SMILES: CCCCCC(=O)N[C@H]1CSCc2cccc(c2)CSC[C@@H](C(N)=O)NC(=O)[C@H](C)NC(=O)[C@H](CCC(=O)O)NC(=O)[C@H]([C@@H](C)O)NC(=O)[C@@H]2CCCN2C(=O)[C@@H]2CCCN2C1=O

The binders below were run against human fibroblast activation protein (FAP) on WI-38 fibroblasts (human) (UniProt Q12884) (assay: competitive FACS, WI-38 cells, Cy5-labeled peptide as competitor). Conditions: not given.

pIC50 Category (FACS) [pIC50]	Binder
< 6	B1
< 6	B2
< 6	B3
< 6	B4
< 6	B5
< 6	B6
< 6	N4Ac-[APAc][Nle]CPPTEFC-OH (linker 3-9 via 3MeBn(3)) [N4Ac-APAc-Nle-[Cys-(3MeBn)-Pro-Pro-Thr-Glu-Phe-Cys]-OH]
< 6	B7
< 6	B8

These binders were tested against recombinant human PREP (R&D systems, #4308-SE) (human) (UniProt P48147) (assay: cell-based or functional assay). Conditions: not given.
recombinant human PREP (R&D systems, #4308-SE) (human), sequence (P48147 whole entry): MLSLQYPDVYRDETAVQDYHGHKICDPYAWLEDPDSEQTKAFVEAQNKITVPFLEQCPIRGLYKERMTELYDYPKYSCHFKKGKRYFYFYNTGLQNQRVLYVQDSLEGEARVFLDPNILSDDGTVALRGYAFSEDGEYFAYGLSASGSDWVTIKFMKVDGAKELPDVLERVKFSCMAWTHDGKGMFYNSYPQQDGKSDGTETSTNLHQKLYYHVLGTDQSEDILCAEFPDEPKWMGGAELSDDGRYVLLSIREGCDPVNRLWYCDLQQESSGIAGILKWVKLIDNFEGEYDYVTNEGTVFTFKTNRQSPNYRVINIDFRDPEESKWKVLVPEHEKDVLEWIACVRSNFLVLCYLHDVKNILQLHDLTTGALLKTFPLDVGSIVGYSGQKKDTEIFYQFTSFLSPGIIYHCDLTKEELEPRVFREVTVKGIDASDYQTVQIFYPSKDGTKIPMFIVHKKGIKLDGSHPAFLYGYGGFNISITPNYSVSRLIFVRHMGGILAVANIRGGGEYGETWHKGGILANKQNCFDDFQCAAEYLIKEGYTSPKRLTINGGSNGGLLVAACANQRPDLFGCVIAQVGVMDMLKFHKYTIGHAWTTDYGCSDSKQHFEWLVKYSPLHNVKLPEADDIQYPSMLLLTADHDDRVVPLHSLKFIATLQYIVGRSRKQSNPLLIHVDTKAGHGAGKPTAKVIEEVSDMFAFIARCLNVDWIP

pIC50 (PREP) [pIC50]	Binder
< 6	B9
< 6	B10
< 6	Hexanoyl-CPPTEFC-NH2 (linker 1-7 via 3MeBn″) [Hex-[Cys(3MeBn)-Pro-Pro-Thr-Glu-Phe-Cys]-NH2]

These binders were tested against Recombinant human DPP4 (R&D systems, #9168-SE) (human) (UniProt P27487) (assay: cell-based or functional assay). Conditions: not given.
Recombinant human DPP4 (R&D systems, #9168-SE) (human), sequence (P27487 29-766 limits assumed): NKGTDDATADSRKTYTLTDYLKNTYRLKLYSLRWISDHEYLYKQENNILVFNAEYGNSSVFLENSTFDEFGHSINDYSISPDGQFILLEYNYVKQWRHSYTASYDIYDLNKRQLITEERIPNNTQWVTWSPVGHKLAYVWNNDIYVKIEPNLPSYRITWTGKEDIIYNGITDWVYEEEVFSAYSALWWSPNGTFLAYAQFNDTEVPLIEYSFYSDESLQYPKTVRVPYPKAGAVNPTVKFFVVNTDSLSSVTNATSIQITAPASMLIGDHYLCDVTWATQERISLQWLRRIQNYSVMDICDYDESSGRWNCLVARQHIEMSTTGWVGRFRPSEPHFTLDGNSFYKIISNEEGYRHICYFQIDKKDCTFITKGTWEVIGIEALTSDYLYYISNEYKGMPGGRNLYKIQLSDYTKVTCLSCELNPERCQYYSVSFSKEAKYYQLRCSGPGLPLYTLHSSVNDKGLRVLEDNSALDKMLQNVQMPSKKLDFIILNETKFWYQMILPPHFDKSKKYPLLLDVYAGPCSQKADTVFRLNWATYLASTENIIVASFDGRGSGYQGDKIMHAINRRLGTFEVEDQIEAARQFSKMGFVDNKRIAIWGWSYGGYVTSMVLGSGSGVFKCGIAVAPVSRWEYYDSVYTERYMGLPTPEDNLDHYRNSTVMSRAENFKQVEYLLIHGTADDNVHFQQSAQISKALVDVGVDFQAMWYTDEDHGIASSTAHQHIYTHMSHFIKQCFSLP

pIC50 (DPP4) [pIC50]	Binder
< 6	B9
< 6	B10
< 6	Hexanoyl-CPPTEFC-NH2 (linker 1-7 via 3MeBn″) [Hex-[Cys(3MeBn)-Pro-Pro-Thr-Glu-Phe-Cys]-NH2]

These binders were tested against fibroblast activation protein (FAP) on FAP-expressing human WI-38 fibroblasts (human) (UniProt Q12884) (assay: competitive FACS, WI-38 cells, vs Cy5 tracer m3; D = pIC50 <=6.0). Conditions: not given.

pIC50 Category (FACS) [pIC50]	Binder
< 6	B11
< 6	B12
< 6	B13
< 6	B14
< 6	B15
< 6	B16
< 6	B17

What follows are binders tested against fibroblast activation protein (FAP) on FAP-expressing human WI-38 fibroblasts (human), Q12884 in the same assay as above. Conditions: remark: other sources report otherwise.

pIC50 Category (FACS) [pIC50]	Binder
< 6	B18
< 6	B19
